Reference: PMC5371411
pKd: −log10 of the molar value.

Target: His-EspC (enteropathogenic Escherichia coli (EPEC)) (UniProt Q9EZE7)
Experiment: SPR; His-EspC coupled by its His tag and EDC-NHS on a nickel-nitrilotriacetic acid sensor slide; His-EspA or His-EspA/His-EspD perfused in PBST at 50 µl/min; Reichert SR7500DC

Q: How did the pKd turn out when “His-EspA/His-EspD complex (from UniProt Q47184 1-192)” was run?
A: 7.61
